The assay deals with HIV-1LAI envelope gp120 labeled with radioactive iodine (HIV-1 LAI), P03377. The assay is described as follows: 125I-gp120, peptide array.
Take CYSGILKTLLRCRNEKKR (modifications not checked) [CCR5 213-230]: the counts minus background (counts per 20 min) is 70.

Regarding AKRFCKCCSIFQQEAPER (modifications not checked) [CCR5 317-334], the counts minus background (counts per 20 min) was determined as 64.

Regarding SVYTRSTGEQEISVGL (modifications not checked) [CCR5 337-352], the counts minus background (counts per 20 min) stood at 47.

For the molecule QKINVKQIAARLLPPLYS (modifications not checked) [CCR5 21-38], the counts minus background (counts per 20 min) was 20.

QAMQVTETLGMTHCCINP (modifications not checked) [CCR5 277-294]: the counts minus background (counts per 20 min) was found to be 81.

Take TVTFGVVTSVITWVVAVF (modifications not checked) [CCR5 141-158]: the counts minus background (counts per 20 min) was -25.

As for LGMTHCCINPIIYAFVGE (modifications not checked) [CCR5 285-302], the counts minus background (counts per 20 min) was found to be 282.

Turning to NKIFLPTIYSIIFLTGIV (modifications not checked) [CXCR4 37-54], the counts minus background (counts per 20 min) amounted to 138.

As to IVLLLNTFQEFFGLNNCS (modifications not checked) [CCR5 253-270], the counts minus background (counts per 20 min) is 2130.

Consider FREENANFNKIFLPTIYS (modifications not checked) [CXCR4 29-46], for which the counts minus background (counts per 20 min) is 51.

For CKCCSIFQQEAPERASSV (modifications not checked) [CCR5 321-338], the counts minus background (counts per 20 min) worked out at 53.

For NANFNKIFLPTIYSIIFL (modifications not checked) [CXCR4 33-50], the counts minus background (counts per 20 min) was 173.

For the molecule ERASSVYTRSTGEQEISV (modifications not checked) [CCR5 333-350], the counts minus background (counts per 20 min) was determined as 84.

Turning to LPTIYSIIFLTGIVGNGL (modifications not checked) [CXCR4 41-58], the counts minus background (counts per 20 min) came to 118.

For SDNYTEEMGSGDYDSMKE (modifications not checked) [CXCR4 9-26], the counts minus background (counts per 20 min) came to 43.

Regarding SQKEGLHYTCSSHFPYSQ (modifications not checked) [CCR5 169-186], the counts minus background (counts per 20 min) stood at 304.

Turning to QKHIAKRFCKCCSIFQQE (modifications not checked) [CCR5 313-330], the counts minus background (counts per 20 min) was 23.

For the molecule GLHYTCSSHFPYSQYQFW (modifications not checked) [CCR5 173-190], the counts minus background (counts per 20 min) amounted to 301.

As for RNYLLVFFQKHIAKRFCK (modifications not checked) [CCR5 305-322], the counts minus background (counts per 20 min) was found to be 65.

In the case of NRLDQAMQVTETLGMTHC (modifications not checked) [CCR5 273-290], the counts minus background (counts per 20 min) was 10.

In the case of LNTFQEFFGLNNCSSSNR (modifications not checked) [CCR5 257-274], the counts minus background (counts per 20 min) was found to be 293.

For SIYTSDNYTEEMGSGDYD (modifications not checked) [CXCR4 5-22], the counts minus background (counts per 20 min) amounted to 71.

TCSSHFPYSQYQFWKNFQ (modifications not checked) [CCR5 177-194]: the counts minus background (counts per 20 min) was determined as 367.

Regarding VMVICYSGILKTLLRCRN (modifications not checked) [CCR5 209-226], the counts minus background (counts per 20 min) was -8.

Turning to TEEMGSGDYDSMKEPCFR (modifications not checked) [CXCR4 13-30], the counts minus background (counts per 20 min) came to 41.

VFASLPGIIFTRSQKEGL (modifications not checked) [CCR5 157-174]: the counts minus background (counts per 20 min) is 54.

For the molecule YAFVGEKFRNYLLVFFQK (modifications not checked) [CCR5 297-314], the counts minus background (counts per 20 min) was determined as 596.

For GEKFRNYLLVFFQKHIAK (modifications not checked) [CCR5 301-318], the counts minus background (counts per 20 min) turned out to be 69.

Take HCCINPIIYAFVGEKFRN (modifications not checked) [CCR5 289-306]: the counts minus background (counts per 20 min) was found to be 200.

Consider FWKNFQTLKIVILGLVLP (modifications not checked) [CCR5 189-206], for which the counts minus background (counts per 20 min) is 40.

Consider VKQIAARLLPPLYSLVFI (modifications not checked) [CCR5 25-42], for which the counts minus background (counts per 20 min) was found to be 18.

AARLLPPLYSLVFIFGFV (modifications not checked) [CCR5 29-46]: the counts minus background (counts per 20 min) is 33.

With KEPCFREENANFNKIFLP (modifications not checked) [CXCR4 25-42], the counts minus background (counts per 20 min) came to 252.

Take LPPLYSLVFIFGFVGNML (modifications not checked) [CCR5 33-50]: the counts minus background (counts per 20 min) was 705.

As to GVVTSVITWVVAVFASLP (modifications not checked) [CCR5 145-162], the counts minus background (counts per 20 min) was found to be 69.

Turning to VTETLGMTHCCINPIIYA (modifications not checked) [CCR5 281-298], the counts minus background (counts per 20 min) amounted to 15.

Turning to HFPYSQYQFWKNFQTLKI (modifications not checked) [CCR5 181-198], the counts minus background (counts per 20 min) was 1010.

Consider SQYQFWKNFQTLKIVILG (modifications not checked) [CCR5 185-202], for which the counts minus background (counts per 20 min) is 1570.

Regarding SEPCQKINVKQIAARLLP (modifications not checked) [CCR5 17-34], the counts minus background (counts per 20 min) was -44.

For the molecule AVRLIFTIMIVYFLFWAP (modifications not checked) [CCR5 233-250], the counts minus background (counts per 20 min) was 62.

LVFFQKHIAKRFCKCCSI (modifications not checked) [CCR5 309-326]: the counts minus background (counts per 20 min) turned out to be 76.

Turning to RNEKKRHRAVRLIFTIMI (modifications not checked) [CCR5 225-242], the counts minus background (counts per 20 min) came out at 23.

With GSGDYDSMKEPCFREENA (modifications not checked) [CXCR4 17-34], the counts minus background (counts per 20 min) is -28.

With WVVAVFASLPGIIFTRSQ (modifications not checked) [CCR5 153-170], the counts minus background (counts per 20 min) came to 87.

In the case of LPLLVMVICYSGILKTLL (modifications not checked) [CCR5 205-222], the counts minus background (counts per 20 min) came to 68.

On to CSSSNRLDQAMQVTETLG (modifications not checked) [CCR5 269-286], for which the counts minus background (counts per 20 min) stood at 90.

Consider YDSMKEPCFREENANFNK (modifications not checked) [CXCR4 21-38], for which the counts minus background (counts per 20 min) was 53.

KIVILGLVLPLLVMVICY (modifications not checked) [CCR5 197-214]: the counts minus background (counts per 20 min) worked out at 65.

Consider GLNNCSSSNRLDQAMQVT (modifications not checked) [CCR5 265-282], for which the counts minus background (counts per 20 min) is -31.

As for KRHRAVRLIFTIMIVYFL (modifications not checked) [CCR5 229-246], the counts minus background (counts per 20 min) amounted to 36.

Take SVITWVVAVFASLPGIIF (modifications not checked) [CCR5 149-166]: the counts minus background (counts per 20 min) worked out at 46.

For the molecule APYNIVLLLNTFQEFFGL (modifications not checked) [CCR5 249-266], the counts minus background (counts per 20 min) stood at 1960.

As for MEGISIYTSDNYTEEMGS (modifications not checked) [CXCR4 1-18], the counts minus background (counts per 20 min) is 2590.

Consider QEAPERASSVYTRSTGEQ (modifications not checked) [CCR5 329-346], for which the counts minus background (counts per 20 min) was 84.

NYYTSEPCQKINVKQIAA (modifications not checked) [CCR5 13-30]: the counts minus background (counts per 20 min) turned out to be 6.

With NPIIYAFVGEKFRNYLLV (modifications not checked) [CCR5 293-310], the counts minus background (counts per 20 min) was found to be 162.

As to QEFFGLNNCSSSNRLDQA (modifications not checked) [CCR5 261-278], the counts minus background (counts per 20 min) was 63.

In the case of FLFWAPYNIVLLLNTFQE (modifications not checked) [CCR5 245-262], the counts minus background (counts per 20 min) stood at 616.

As for FQTLKIVILGLVLPLLVM (modifications not checked) [CCR5 193-210], the counts minus background (counts per 20 min) was 45.

Regarding ILKTLLRCRNEKKRHRAV (modifications not checked) [CCR5 217-234], the counts minus background (counts per 20 min) was found to be 19.

Source of the values: patent US7304127.
